Measurements published in US20180334494A1 (UNIVERSITY OF VIRGINIA PATENT FOUNDATION, published 2018).
Numbering of substitutions follows the chain as printed.

B1: Fab 6 (Fab, V domains shown)
VH: EVQLVESGGGLVQPGGSLRLSCAASGFNVYYYYIHWVRQAPGKGLEWVASISPYYGYTSSYADSVKGRFTISADTSKNTAYLQMNSLRAEDTAVYYCARWSYDQSMSYKSGMDYWGQGTLVTVSS
VL: DIQMTQSPSSLSASVGDRVTITCRASQSVSSAVAWYQQKPGKAPKLLIYSASSLYSGVPSRFSGSRSGTDFTLTISSLQPEDFATYYCQQYSYSLVTFGQGTKVEIKR
B2: Fab 20 (Fab, V domains shown)
VH: EVQLVESGGGLVQPGGSLRLSCAASGFNISYSSIHWVRQAPGKGLEWVASIYSYSGYTSYADSVKGRFTISADTSKNTAYLQMNSLRAEDTAVYYCARSYWYHVGSWHYTGMDYWGQGTLVTVSS
VL: B1 VL with Y91S, Y93S, V96I

Molecular target: T1, C-terminal domain of Zaire Ebola virus Nucleoprotein (NP^Ct) (Zaire Ebola virus, UniProt P18272 641-739)
T1 construct: also called Zaire NP^Ct; Zaire EBOV NP^Ct
T1 sequence (P18272 641-739, tags left off): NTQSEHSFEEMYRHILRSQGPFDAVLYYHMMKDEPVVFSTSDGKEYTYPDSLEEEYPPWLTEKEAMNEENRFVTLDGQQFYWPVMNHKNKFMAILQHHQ
Assay: ITC

| Binder | Kd |
| --- | --- |
| B1 | ~5 nM |
| B2 | ~5 nM |
